Experimental data from US20110306105A1 (University of California, published 2011).

T1: scaffoldin Scaf-c displayed on the yeast cell surface (chimeric: C. cellulolyticum cohesin …)
T1 construct: also called Sacf-c; not shown: yeast surface display anchor of vector pCTCON2; C-terminal c-Myc tag
T1 chain: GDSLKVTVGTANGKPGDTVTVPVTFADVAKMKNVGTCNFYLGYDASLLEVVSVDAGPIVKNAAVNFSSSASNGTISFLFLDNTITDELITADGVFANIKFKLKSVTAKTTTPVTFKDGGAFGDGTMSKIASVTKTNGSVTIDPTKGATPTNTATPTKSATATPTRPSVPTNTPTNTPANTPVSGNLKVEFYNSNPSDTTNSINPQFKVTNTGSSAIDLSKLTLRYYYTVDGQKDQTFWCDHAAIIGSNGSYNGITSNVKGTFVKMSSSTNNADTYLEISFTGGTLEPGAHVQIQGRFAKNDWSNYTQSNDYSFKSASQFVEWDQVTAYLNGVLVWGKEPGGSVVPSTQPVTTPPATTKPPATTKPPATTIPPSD

T2: scaffoldin Scaf-ct displayed on the yeast cell surface (chimeric: C. cellulolyticum, C. …)
T2 construct: also called Sacf-ct; not shown: yeast surface display anchor of vector pCTCON2; C-terminal c-Myc tag
T2 chain: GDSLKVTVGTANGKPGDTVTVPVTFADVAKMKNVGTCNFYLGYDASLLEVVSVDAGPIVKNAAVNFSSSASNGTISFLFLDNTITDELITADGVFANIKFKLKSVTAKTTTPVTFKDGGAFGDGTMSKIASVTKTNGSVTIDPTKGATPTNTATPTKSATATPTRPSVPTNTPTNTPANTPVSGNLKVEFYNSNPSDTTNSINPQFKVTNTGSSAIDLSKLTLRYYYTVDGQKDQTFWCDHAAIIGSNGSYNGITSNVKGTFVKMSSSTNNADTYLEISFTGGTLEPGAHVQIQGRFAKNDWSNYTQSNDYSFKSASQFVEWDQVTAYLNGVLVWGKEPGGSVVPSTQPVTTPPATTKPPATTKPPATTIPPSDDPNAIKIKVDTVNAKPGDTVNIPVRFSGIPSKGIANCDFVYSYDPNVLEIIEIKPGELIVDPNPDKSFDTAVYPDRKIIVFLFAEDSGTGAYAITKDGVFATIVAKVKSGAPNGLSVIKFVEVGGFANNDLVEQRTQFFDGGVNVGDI

T3: trifunctional scaffoldin Scaf-ctf displayed on the yeast (S. cerevisiae EBY100) cell surface (chimeric: C. cellulolyticum, C. …, Displayed on the S. cerevisiae EBY100 cell surface through an N-terminal anchor fusion, which the letters do not carry.)
T3 construct: also called Sacf-ctf; SCAF6; not shown: N-terminal yeast display anchor and linker of vector pCTCON2 (called the GPI anchor); C-terminal c-Myc tag; the vector junctions; possibly a His stretch carried over from pETscaf6, since reverse primer R1SalI anneals on His codons
T3 chain: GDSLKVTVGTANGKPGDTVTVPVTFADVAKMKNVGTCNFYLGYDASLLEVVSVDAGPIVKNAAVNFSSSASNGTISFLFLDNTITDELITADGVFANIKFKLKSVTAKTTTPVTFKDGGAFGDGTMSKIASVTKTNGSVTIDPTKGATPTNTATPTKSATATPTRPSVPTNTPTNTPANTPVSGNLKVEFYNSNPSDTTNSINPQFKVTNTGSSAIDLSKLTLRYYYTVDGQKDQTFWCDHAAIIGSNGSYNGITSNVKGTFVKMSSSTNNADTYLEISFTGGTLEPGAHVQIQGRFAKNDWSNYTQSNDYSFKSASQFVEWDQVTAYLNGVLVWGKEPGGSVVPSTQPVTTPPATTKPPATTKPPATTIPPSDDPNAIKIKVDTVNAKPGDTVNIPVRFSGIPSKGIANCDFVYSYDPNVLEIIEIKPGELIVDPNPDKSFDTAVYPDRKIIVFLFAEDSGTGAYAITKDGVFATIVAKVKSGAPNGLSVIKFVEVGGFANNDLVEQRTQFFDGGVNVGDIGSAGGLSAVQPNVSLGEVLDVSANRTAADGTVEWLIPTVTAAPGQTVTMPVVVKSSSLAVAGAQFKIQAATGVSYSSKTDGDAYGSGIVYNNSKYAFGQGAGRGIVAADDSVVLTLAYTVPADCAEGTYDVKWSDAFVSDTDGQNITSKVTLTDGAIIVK

B1: endoglucanase CelG from C. cellulolyticum fused to a dockerin domain from R. flavefaciens (Gf), His6-tagged (enzyme)
chain: MGTYNYGEALQKSIMFYEFQRSGDLPADKRDNWRDDSGMKDGSDVGVDLTGGWYDAGDHVKFNLPMSYTSAMLAWSLYEDKDAYDKSGQTKYIMDGIKWANDYFIKCNPTPGVYYYQVGDGGKDHSWWGPAEVMQMERPSFKVDASKPGSAVCASTAASLASAAVVFKSSDPTYAEKCISHAKNLFDMADKAKSDAGYTAASGYYSSSSFYDDLSWAAVWLYLATNDSTYLDKAESYVPNWGKEQQTDIIAYKWGQCWDDVHYGAELLLAKLTNKQLYKDSIEMNLDFWTTGVNGTRVSYTPKGLAWLFQWGSLRHATTQAFLAGVYAEWEGCTPSKVSVYKDFLKSQIDYALGSTGRSFVVGYGVNPPQHPHHRTAHGSWTDQMTSPTYHRHTIYGALVGGPDNADGYTDEINNYVNNEIACDYNAGFTGALAKMYKHSGGDPIPNFKAIEKITNDEVIIKAGLNSTGPNYTEIKAVVYNQTGWPARVTDKISFKYFMDLSEIVAAGIDPLSLVTSSNYSEGKNTKVSGVLPWDVSNNVYYVNVDLTGENIYPGGQSACRREVQFRIAAPQGRRYWNPKNDFSYDGLPTTSTVNTVTNIPVYDNGVKVFGNEPAGGSEPGTKLVPTWGDTNCDGVVNVADVVVLNRFLNDPTYSNITDQGKVNADVVDPQDKSGAAVDPAGVKLTVADSEAILKAIVELITLPQHHHHHH
notes: Expressed in E. coli; also called CelG-Df
B2: exoglucanase CelE from C. cellulolyticum fused to a dockerin domain from the same species (Ec), His6-tagged (enzyme)
chain: MLVGAGDLIRNHTFDNRVGLPWHVVESYPAKASFEITSDGKYKITAQKIGEAGKGERWDIQFRHRGLALQQGHTYTVKFTVTASRACKIYPKIGDQGDPYDEYWNMNQQWNFLELQANTPKTVTQTFTQTKGDKKNVEFAFHLAPDKTTSEAQNPASFQPITYTFDEIYIQDPQFAGYTEDPPEPTNVVRLNQVGFYPNADKIATVATSSTTPINWQLVNSTGAAVLTGKSTVKGADRASGDNVHIIDFSSYTTPGTDYKIVTDVSVTKAGDNESMKFNIGDDLFTQMKYDSMKYFYHNRSAIPIQMPYCDQSQWARPAGHTTDILAPDPTKDYKANYTLDVTGGWYDAGDHGKYVVNGGIATWTVMNAYERALHMGGDTSVAPFKDGSLAIPEAEVYPDILDEARYQLINMKTLLNSQVPAGKYAGMAHHKAHDERWTALAVRPDQDTMKRWLQPPSTAATLNLAAIAAQSSRLWKQFDSAFATKCLTAAETARDAAVAHPEIYATMEQGAGGGAYGDNYVLDDFYWAACELYATTGSDKYLNYIKSSKHYLEMPTELTGGENTGITGAFDWGCTAGMGTITLALVPTKLPAADVATAKANIQAAADKFISISKAQGYGVPLEEKVISSPFDASVVKGFQWGSNSFVINEAIVMSYAYEFSDVNGTKNNKYINGALTAMDYLLGRNPNIQSYITGYGDNPLENPHHRFWAYQADNTFPKPPPGCLSGGPNSGLQDPWVKGSGWQPGERPAEKCFMDNIESWSTNEITINWNAPLVWISAYLDEKGPEIGGSVTPPTNLGDVNGDGNKDALDFAALKKALLSQDTSTINVANADINKDGSIDAVDFALLKSFLLGKITQHHHHHH
notes: Expressed in E. coli and used as cell lysate or purified; also called CelE-Dc

Tests used:
[1] = target: T1, scaffoldin Scaf-c displayed on the …; test: immunofluorescence microscopy with anti-His6 on yeast displaying Scaf-c incubated with E. coli lysate
[2] = target: T2, scaffoldin Scaf-ct displayed on the …; test: immunofluorescence microscopy with anti-His6 on yeast displaying Scaf-ct incubated with E. coli lysate
[3] = target: T3, trifunctional scaffoldin Scaf-ctf …; test: immunofluorescence microscopy, yeast displaying Scaf-ctf incubated with E. coli lysate
Method: After incubation for 2 h, cells were pelleted, washed twice with PBS, and resuspended in PBS to an OD at 600 nm of 1. For fluorescence microscopy (Olympus BX51), 5- to 10_l volumes of cell suspensions were spotted onto slides and a coverslip was added. […] Whole-cell fluorescence was measured with a fluorescence microplate reader (Synergy4; BioTek, VT) at an excitation wavelength of 485 nm and an emission wavelength of 535 nm.
A His6 tag was added to the C terminus of each of the dockerin domains for detection of the assembly.

Binder | binding result [1] | binding result [2] | binding result [3]
B1 | no binding | no binding | –
B2 | – | – | binds
